In patent US12065505B2, “Antibodies and antigen binding peptides for factor XIa inhibitors and uses thereof” (Bristol-Myers Squibb Company, priority 2021, dated 2024):
Where a chain is given by its changes, count along the chain named. Where two headings read alike, the source gives them in different places. Each block holds one molecule with its values, some of them ahead of it.

Tests used:
[1] = SPR (Biacore) Protein A mAb capture, Compound A injected; details: 37° C., binding to Compound A, for rank ordering only
Procedure: The binding of hybridoma expressed 26D5 parent mAb (VH SEQ ID NO: 83 and VL SEQ ID NO: 98 in IgG1 f format)(P1-072224) and affinity matured mAbs to Compound A was examined by SPR (Biacore™) using a protein A capture method. The running buffer was 1×PBS (phosphate buffered saline, pH 7.4) with 0.05% Tween 20 and 2% DMSO. Binding experiments were carried out at 37° C. Protein A was coated on a CM5 S-series sensor chip (Cytiva, Cat. No. 29149603) at high density (2000+ RUs of protein A). The immobilization of protein A was carried out using the standard amine coupling immobilization procedure recommended by the manufacturer. The affinity matured antibody was then captured at a concentration of 2 ug/mL on the protein A surface at a flow rate of 3 uL/min for 2 minutes. Compound A was then injected over the captured antibody at concentrations spanning 100-3 nM (100, 50, 25, 12.5, 6.25, 3.125 nM) (FIG. 10) and for screening concentrations spanning 100-3 nM (100, 33, 11 nM) for 2 minutes at a flow rate of 100 uL/min and allowed to dissociate for at least 450 seconds. The chip surface was regenerated after each cycle with a 40 second pulse of 10 mM Glycine, pH 1.5. Background binding to the protein A surface alone was used to subtract non-specific binding. All experiments were run on a Biacore T200 surface plasmon resonance instrument using Biacore T200 Control software v. 2. Data analysis was performed using Biacore T200 evaluation software v 3.1. Apparent affinities were determined for rank ordering only since dissociation rates were too slow to be measured by Biacore. The names of the mAbs in Table 10 refer to mAbs having the H and L chain sequences of the corresponding Fabs in Table 3 in an IgG1f format.

[2] = Competitive TR-FRET assay modified for mAbs and Fabs (T0, T24, T48); type: binding; details: 37° C.; for T24 hr IC50 shift: IC50 shift at 24 hr relative to T0; for T48 hr IC50 shift: IC50 shift at 48 hr relative to T0
Procedure: A competitive TR-FRET (time-resolved fluorescence resonance energy transfer) assay was developed to rank-order the dissociation of α-Compound A mAbs from Compound A as equilibrium is reached at 37° C. The assay buffer was HBS-N (10 mM HEPES, 150 mM NaCl, pH 7.4; GE Healthcare), 0.1% (w/v) BSA (bovine serum albumin; Sigma), 2% DMSO (dimethyl sulfoxide; Sigma). All reagents were prepared in assay buffer and dispensed in equal volumes into white 384 microplates with final volume of 20 μl per well at the following final concentrations: 4 nM COMPOUND 5, the biotinylated analog of COMPOUND 2, a 100 0.1 nM 7-pt titration of human α-Compound A antibodies, 0.1 nM europium-labeled α-mouse IgG (LANCE Eu-W1024; PerkinElmer), 5 nM streptavidin-D2 (Cisbio), and 4 nM mAb 26D5 VH_A10G_Y33A_S53P_M89V_G95A; VK_W32N_H38Q (P1-075621, the second-round optimization parent 26D5-295-B08 formatted with mouse IgG Fc). COMPOUND 5 and α-Compound A antibody titrations were added first to the microplate, and were subjected to an initial incubation at 37° C., 1000 rpm, for one hour to facilitate antibody binding to the compound. After the initial incubation period, the europium α-mouse IgG, streptavidin-D2, and 26D5-mouse IgG (P1-075621) were added sequentially, then the plate was returned to 37° C., 1000 rpm incubation. Microplates were read using a Perkin Elmer EnVision plate reader, and the measured FRET signal was defined as [665 nm]/[620 nm]*10,000. Microplates were read at 30 minutes (T0) and after 24 hour (T24) intervals. For each antibody titration, the FRET signal was converted to % Inhibition relative to wells without α-Compound A antibody: (100 ((FRET at [antibody concentration]/FRET at 0 nM)*100). The % inhibition antibody titrations were plotted using TIBCO Spotfire (v.7), and the IC50 was determined using a 4-parameter model curve fit. The IC50s at each timepoint were reported, as well as the IC50 curve shift relative to T0. An IC50 curve shift indicated α-Compound A antibody dissociation from the biotinylated compound as the assay reached equilibrium, which subsequently allowed 26D5-mouse IgG1 (P1-075621) competitor to bind and generate the FRET signal detected in the assay.
The competitive TR-FRET assay defined above was also modified to assess optimized 26D5 antibody progeny that were reformatted as Fabs. The α-Compound A antibody and Fab titration series were extended to 250 0.244 nM (11-pt titration), and replicates of each concentration were collected in quadruplicate. The assay incubation was extended to include an additional 48 hr timepoint to ensure equilibrium was reached, and T48 hr IC50 and IC50 shifts were reported. The % inhibition titrations were plotted in Graphpad Prism (v.8) and fit to a 4-parameter model. All other experimental setup conditions were otherwise identical to the antibody TF-FRET assay.
Competitive FRET data collected for affinity-optimized α-Compound A 26D5 progeny comparing human antibodies and Fabs are shown in FIG. 14 and Table 13. Each panel represents a single α-Compound A sequence, with antibody (mAb, solid lines, circles) and Fab (dotted lines, triangles) formats overlaid. […] The names of the mAbs/Fabs in Table 13 refer to the corresponding sequences in Tables 1-3. All mAbs listed in Table 13 were in a human IgG1f/LC kappa format.

[3] = SPR (Biacore) on chip coated with BSA conjugated to COMPOUND 2; type: binding; details: Fab over COMPOUND 2-BSA surface; for Ka / koff, dissociation rate constant: apparent; for Kd: apparent affinity
Procedure: The binding of the first round affinity matured antibody Fab fragments to conjugated versions of Compound A was examined by SPR (Biacore™) using a CM5 S-series sensor chip (Cytiva, Cat. No. 29149603) coated with BSA previously conjugated to COMPOUND 2, COMPOUND 3 or COMPOUND 1. The immobilization level was 150-250 RUs. The running buffer was 1×PBS (phosphate buffered saline, pH 7.4) with 0.05% Tween 20. […] The antibody Fab fragment at a concentration of between 200-0.8 nM was injected over the BSA-compound coated surface for 2 minutes at a flow rate of 30 uL/min. The antibody Fab fragment was then allowed to dissociate for 15 minutes. The chip surface was regenerated after each cycle with a 1 minute pulse of 10 mM Glycine, pH 2, and a 1 minute pulse of 50 mM NaOH. All experiments were run on the same equipment and analyzed with the same software as described before. Apparent affinities were determined for rank ordering only since dissociation rates were too slow to be measured by Biacore. Comparative experiments with selected mAbs were also conducted in a similar fashion (see FIG. 11).

[4] = apparent affinity, read-out: KD
[5] = read at 30 minutes (T0), competitor 26D5-mouse IgG (P1-075621), read-out: T0 IC50

Kd [1, 4]: < 0.05 nM
Kd ([1]; apparent): <5e-05 s⁻¹
IC50 ([2]; 24 hr, read-out: T24 hr IC50): 2.5 nM
IC50 ([2]; 48 hr, read-out: T48 hr IC50): 2.7 nM
IC50 [2, 5]: 1.3 nM
B1: 26D5-75214-343-F06-mAb: human IgG1f/kappa mAb; VH SEQ ID NO: 53, VL SEQ ID NO: 85 (antibody, V domains shown)
VH: EVQLVESGGGLIQPGGSLRLSCAASGFTVSSNAMSWVRQAPGKGLEWVSFIYPGGRTYYADSVKGRFTISRDNSKNTLYLQMNSLRAEDTAVYYCARAGFGGPDYWGQGTLVTVSS
VL: DIQMTQSPSSVSASVGDRVTITCRASQGISSNLAWYQQKPGKAPKLLIYAASSLQSGVPSRFSGSGSGTDFTLTISSLQPEDFATYYCQQANEFPLTFGGGTKVEIK
Ka ([1]; apparent): 1.2e+06 M⁻¹ s⁻¹
T24 hr IC50 shift [2]: 1.3 nM
T48 hr IC50 shift [2]: 1.4 nM

koff, dissociation rate constant ([3]; 37° C.): 0.001 s⁻¹
Kd ([3]; 37° C.): 1.3 nM
B2: 24H1-GQTV-Fab-LONG: antibody Fab fragment; VH SEQ ID NO: 80, VL SEQ ID NO: 98; sequence in Table 3 (antibody, V domains shown)
VH: B1 VH with S31R, A33Y, P53S, R56S, A98G, P103G
VL: B1 VL with N32W, Q38H, E93S
Ka ([3]; 37° C.): 790000 M⁻¹ s⁻¹

koff, dissociation rate constant ([3]; 37° C.): 0.00022 s⁻¹
Kd ([3]; 37° C.): 0.8 nM
B3: 26D5-295-B08-Fab-LONG: antibody Fab fragment; VH SEQ ID NO: 60, VL SEQ ID NO: 88; sequence in Table 3 (antibody, V domains shown)
VH: B1 VH with P103G
VL: B1 VL with E93S
Ka ([3]; 37° C.): 280000 M⁻¹ s⁻¹

koff, dissociation rate constant ([3]; 37° C.): 8.5e-05 s⁻¹
Kd ([3]; 37° C.): 0.3 nM
B4: 26D5-295-C08-Fab-LONG: antibody Fab fragment; VH SEQ ID NO: 62, VL SEQ ID NO: 88; sequence in Table 3 (antibody, V domains shown)
VH: B1 VH with T28Q, A98G, P103G
VL: B1 VL with E93S
Ka ([3]; 37° C.): 280000 M⁻¹ s⁻¹

koff, dissociation rate constant ([3]; 37° C.): 0.0013 s⁻¹
Kd ([3]; 37° C.): 0.9 nM
B5: 26D5-GVR-Q-FT-Fab-SHORT: antibody Fab fragment; VH SEQ ID NO: 81, VL SEQ ID NO: 99; sequence in Table 3 (antibody, V domains shown)
VH: B1 VH with S31R, A33Y, P53S, A98G, P103G
VL: B1 VL with N32W, E93S
Ka ([3]; 37° C.): 1.6e+06 M⁻¹ s⁻¹

koff, dissociation rate constant ([3]; 37° C.): 0.0016 s⁻¹
Kd ([3]; 37° C.): 1.3 nM
B6: 26D5-GVR-Q-FT-Fab-LONG: antibody Fab fragment; VH SEQ ID NO: 81, VL SEQ ID NO: 99; sequence in Table 3 (antibody, V domains shown)
VH: B1 VH with S31R, A33Y, P53S, A98G, P103G
VL: B1 VL with N32W, E93S
Ka ([3]; 37° C.): 1.3e+06 M⁻¹ s⁻¹

Kd [1, 4]: < 0.05 nM
Kd ([1]; apparent): <5e-05 s⁻¹
IC50 ([2]; 24 hr, read-out: T24 hr IC50): 3 nM
IC50 ([2]; 48 hr, read-out: T48 hr IC50): 3.1 nM
IC50 [2, 5]: 2.6 nM
B7: 26D5-75203-343-B09-mAb: human IgG1f/kappa mAb; VH SEQ ID NO: 54, VL SEQ ID NO: 87 (antibody, V domains shown)
VH: B1 VH with F50Y, P103G
VL: B1 VL with S53T
Ka ([1]; apparent): 1.2e+06 M⁻¹ s⁻¹
T24 hr IC50 shift [2]: 0.4 nM
T48 hr IC50 shift [2]: 0.5 nM

koff, dissociation rate constant ([3]; 37° C.): 0.001 s⁻¹
Kd ([3]; 37° C.): 3.5 nM
B8: 26D5-GVR-H-Fab-LONG: antibody Fab fragment; VH SEQ ID NO: 81, VL SEQ ID NO: 98; sequence in Table 3 (antibody, V domains shown)
VH: B1 VH with S31R, A33Y, P53S, A98G, P103G
VL: B1 VL with N32W, Q38H, E93S
Ka ([3]; 37° C.): 280000 M⁻¹ s⁻¹

Kd [1, 4]: < 0.09 nM
Kd ([1]; apparent): <5e-05 s⁻¹
IC50 ([2]; 24 hr, read-out: T24 hr IC50): 2.5 nM
IC50 ([2]; 48 hr, read-out: T48 hr IC50): 2.9 nM
IC50 [2, 5]: 1.4 nM
B9: 26D5-75202-343-A09-mAb: human IgG1f/kappa mAb; VH SEQ ID NO: 54, VL SEQ ID NO: 86 (antibody, V domains shown)
VH: B1 VH with F50Y, P103G
VL: B1 VL with S30Y
Ka ([1]; apparent): 590000 M⁻¹ s⁻¹
T24 hr IC50 shift [2]: 1.1 nM
T48 hr IC50 shift [2]: 1.5 nM

koff, dissociation rate constant ([3]; 25° C.): 0.00087 s⁻¹
Kd ([3]; 25° C.): 2.1 nM
B10: 9C8-VGSKE-Fab-LONG: antibody Fab fragment; VH SEQ ID NO: 78, VL SEQ ID NO: 96; sequence in Table 3 (antibody, V domains shown)
VH: QVQLQESGPGLVKPSETLSLTCAVSGYSISSGYYWGWIRQPPGKGLEWIGSIYHSGNTYYSPSLQSRVTISVDTSKNQFSLKLSSVTAADTAVYYCARGGDFDILTGYYKGWFEPWGQGTLVTVSS
VL: AIQLTQSPSSLSASVGDRVTITCRASQGISSALAWYQQKPGKAPKLLIYDASSLESGVPSRFSGSGSGTDFTLTISSLQPEDFATYYCQQFNSYPQTFGQGTKVEIK
Ka ([3]; 25° C.): 400000 M⁻¹ s⁻¹
